Test results as given in PMC6300691, “Enhancement of Heat Stability and Kinetic Parameters of the Maize Endosperm ADP-Glucose Pyrophosphorylase by Mutagenesis of Amino Acids in the Small Subunit With High B Factors” (Frontiers in Plant Science, 2018).
Numbering of substitutions follows the chain as printed. In names and notes the source's numbering stands. Like-named read-outs stand apart in the source and are kept apart here.

Tests used:
MP + SH2-E = system: T1, MP + SH2-E; test: Initial-rate assay without 3-PGA, ATP and G-1-P both varied (0.01-10 mM and 0.1-25 mM), global fit to a sequential mechanism.; type: biochemical; details: read-out: G-1-P Km (absence of 3-PGA)
T1 construct: chimeric small subunit MP (maize 198 / potato 277 amino acids) with SH2-E

MP = system: T2, MP; test: as above; type: biochemical; details: read-out: G-1-P Km (absence of 3-PGA)
T2 construct: small subunit of first 198 amino acids of maize BT2 and last 277 of potato tuber small subunit, with wild type SH2

maize endosperm AGPase [1] = test: Pi inhibition in the absence of 3-PGA; type: biochemical; details: for α / β: absence of 3-PGA
Source text: (§1) (2) v=Vm(S/Ks+(βSI)/(αKiKs))/(1+S/Ks+I/Ki+SI/αKiKs)P-MT
(§2) (3) v=Vm(S/Ks)/(1+S/Ks+I/Ki+SI/αKiKs)L-MT

maize endosperm AGPase [2] = test: 3-PGA activation constant (Ka), Vmin and Vmax; type: biochemical; details: change in activity from Vmin to total velocity with 3-PGA; substrates 2 mM
Source text: All reactions were developed as above.

maize endosperm AGPase [3] = test: Pi inhibition in the presence of 3-PGA; type: biochemical
Source text: as §1, §2

maize endosperm AGPase [4] = test: Kinetic values in the absence of 3-PGA; type: biochemical
Source text: (1) v=VAB/(KiaKmb+KmbA+KmaB+AB

maize endosperm AGPase [5] = test: Catalytic activity at 37 and 55°C (end point PPi assay); type: biochemical
Procedure: Reactions proceeded for 2, 4, 6, 8, 10, and 15 min and were terminated by boiling. Reaction mixes (1300 μl) were pre-warmed to 37°C or 55°C and the assay was started with the addition of the enzyme. Assay time points (200 μl) were removed at the appropriate time and boiled for 2 min. At 37°C all reactions were linear for 15 min; however, at 55°C rates were linear for a shorter duration. A rate was only calculated if the reactions were linear for at least 10 min.
The amount of PPi produced in the reaction was coupled to a decrease in NADH concentration. Coupling reagent contained 25 mM imidazole pH 7.4, 4 mM MgCl2, 1 mM EDTA, 0.2 mM NADH, 0.725 U aldolase, 0.4 U triose phosphate isomerase, 0.6 U glycerophosphate dehydrogenase, 1 mM fructose 6-phosphate and 0.8 μg purified PPi-PFK per reaction. Blank samples contained complete reaction mixtures minus the enzyme. Change in absorbance between the blank and the reaction was used to calculate the amount of PPi produced. All reactions were linear with time and enzyme concentration.

maize endosperm AGPase [6] = details: cited from earlier work
E. coli AC70R1-504 = details: 2015, cited from earlier work
maize endosperm AGPase [7] = details: ref Boehlein et al., 2015; cited from earlier work
maize endosperm AGPase [8] = target: maize endosperm AGPase; parameters: method as in Georgelis et al., 2009; Boehlein et al., 2015; details: ref Georgelis et al., 2009; Boehlein et al., 2015; cited from earlier work
[9] = growth at 37 and 42°C, SH2 variants, ref Boehlein et al.

## O=P(O)(O)O[C@H]1O[C@H](CO)[C@@H](O)[C@H](O)[C@H]1O [G-1-P, glucose-1-phosphate]
MP + SH2-E
  Km: 0.09 ± 0.008 mM
MP
  Km: 11.9 ± 3 mM

B1: wt: wild type maize endosperm AGPase: SH2 large subunit with BT2 small subunit, expressed in E. coli (protein, UniProt P55241 46-516; P55241 46-516, looked up)
Glucose-1-phosphate … 1: FGGRVAATTQCILTSDACPETLHSQTQSSRKNYADANRVSAIILGGGTGSQLFPLTSTRATPAVPVGGCYRLIDIPMSNCFNSGINKIFVMSQFNSTSLNRHIHRTYLEGGINFADGSVQVLAATQMPEEPAGWFQGTADSIRKFIWVLEDYYSHKSIDNIVILSGDQLYRMNYMELVQKHVEDDADITISCAPVDESRASKNGLVKIDHTGRVLQFFEKPKGADLNSMRVETNFLSYAIDDAQKYPYLASMGIYVFKKDALLDLLKSKYTQLHDFGSEILPRAVLDHSVQACIFTGYWEDVGTIKSFFDANLALTEQPSKFDFYDPKTPFFTAPRCLPPTQLDKCKMKYAFISDGCLLRECNIEHSVIGVCSRVSSGCELKDSVMMGADTYETEEEASKLLLAGKVPVGIGRNTKIRNCIIDMNARIGKNVVITNSKGIQEADHPEEGYYIRSGIVVILKNATINDGSVI
Glucose-1-phosphate … 2: B1 Glucose-1-phosphate … 1
modifications: expressed in E. coli
Maize endosperm AGPase [1]
  Ki for Pi higher in the absence of 3PGA compared to the presence of 3PGA: 5–10 fold
Maize endosperm AGPase [1]; varied substrate ATP
  α: 0.063 ± 0.034
  β: 0.52 ± 0.17
Maize endosperm AGPase [1]; varied substrate G-1-P
  α: 0.095 ± 0.065
  β: 0.92 ± 0.31
Maize endosperm AGPase [2]
  Vmax: 6352 ± 540
Maize endosperm AGPase [3]; varied substrate ATP
  α: 4.61 ± 0.07
  β: 0.83 ± 0.037
Maize endosperm AGPase [3]; varied substrate G-1-P
  α: 0.90 ± 0.012
  β: 0.52 ± 0.023
Maize endosperm AGPase [4]; Km without 3PGA versus with 3PGA
  reduction of the Km values of both substrates by binding of 3PGA: over 50 fold
Maize endosperm AGPase [4]; absence of 3-PGA, read-out: ATP Km
  Km: ~4 mM
Maize endosperm AGPase [4]; read-out: G-1-P Km (absence of 3-PGA)
  Km: 3 mM
Maize endosperm AGPase [5]; 37°C, 5 mM ATP, 2 mM G-1-P, 2.5 mM 3-PGA, purified enzyme from E. coli
  Activity at 37°C: 5415 ± 268
Maize endosperm AGPase [5]; 55°C
  activity at 55°C (in words): not active

B2: S444A: SH2 large subunit variant S444A (protein, UniProt P55241 46-516, looked up, variant S444A)
Glucose-1-phosphate …: B1 Glucose-1-phosphate … 1 with S399A
Maize endosperm AGPase [6]; ref Boehlein et al., 2014
  effect on 3-PGA Ka (in words): Did not alter 3-PGA Ka

B3: S444R: SH2 large subunit variant S444R (protein, UniProt P55241 46-516, looked up, variant S444R)
Glucose-1-phosphate …: B1 Glucose-1-phosphate … 1 with S399R
E. coli AC70R1-504; [9]
  glycogen staining (in words): Stained darker at 37 and 42°
Maize endosperm AGPase [7]
  activity at 37° (in words): had higher activity at 37°

B4: P372A: SH2 large subunit variant P372A (protein, UniProt P55241 46-516, looked up, variant P372A)
Glucose-1-phosphate …: B1 Glucose-1-phosphate … 1 with P327A
E. coli AC70R1-504; ref Georgelis et al., 2009, Boehlein et al.
  glycogen staining (in words): reduced glycogen staining
Maize endosperm AGPase [8]
  effect on Ki for phosphate (in words): decreased Ki for phosphate
Maize endosperm AGPase [6]; ref Georgelis et al., 2009, Boehlein et al., 2015
  effect on 3-PGA Ka (in words): Increased 3-PGA Ka

B5: E438Q: SH2 large subunit variant E438Q (protein, UniProt P55241 46-516, looked up, variant E438Q)
Glucose-1-phosphate …: B1 Glucose-1-phosphate … 1 with E393Q
Maize endosperm AGPase [6]; ref Georgelis et al., 2009
  effect on 3-PGA Ka (in words): Did not alter 3-PGA Ka

B6: K445R: SH2 large subunit variant K445R (protein, UniProt P55241 46-516, looked up, variant K445R)
Glucose-1-phosphate …: B1 Glucose-1-phosphate … 1 with K400R
E. coli AC70R1-504; [9]
  glycogen staining (in words): Stained darker at 37 and 42 °C
